Measurements: IntAct's records for PubMed 24525235

B1: Twist-related protein 1 (Homo sapiens), Q15672 (parent)
chain: MMQDVSSSPVSPADDSLSNSEEEPDRQQPPSGKRGGRKRRSSRRSAGGGAGPGGAAGGGVGGGDEPGSPAQGKRGKKSAGCGGGGGAGGGGGSSSGGGSPQSYEELQTQRVMANVRERQRTQSLNEAFAALRKIIPTLPSDKLSKIQTLKLAARYIDFLYQVLQSDELDSKMASCSYVAHERLSYAFSVWRMEGAWSMSASH

Variants of: B1
Conditions: with BRD4, O60885-1

Row | effect of a mutation on the interaction | Variant
1 | disrupting interaction strength | K73R;K76R
2 | decreasing interaction strength | K73R
3 | decreasing interaction strength | K76R
